Data reported in PMC9482650, “Quantitative fragmentomics allow affinity mapping of interactomes” (Nature Communications, 2022).

Target: T1, APBA3_1, O96018
T1 sequence (O96018 389-490, limits assumed, looked up): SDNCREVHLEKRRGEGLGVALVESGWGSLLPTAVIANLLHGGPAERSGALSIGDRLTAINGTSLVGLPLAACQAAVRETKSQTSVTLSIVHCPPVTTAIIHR
Test: holdup assay
Set-up: key: below the threshold = too weak to quantify, mostly under pKd 3.1 to 4
Conditions: plain residues with an end cap or a label only (N-terminal biotin on a linker: ado-ado)

Binder	pKd
TMQMSLKDLL [GLA, P06280]	below the threshold
RALRASESGI [ADGRE5, P48960]	below the threshold

Target: MAGI2_6, Q86UL8
Test: holdup assay
Set-up: key: below the threshold = too weak to quantify, mostly under pKd 3.1 to 4
Conditions: plain residues with an end cap or a label only (N-terminal biotin on a linker: ado-ado)

MAGI2_6, Q86UL8, sequence (Q86UL8 1141-1229): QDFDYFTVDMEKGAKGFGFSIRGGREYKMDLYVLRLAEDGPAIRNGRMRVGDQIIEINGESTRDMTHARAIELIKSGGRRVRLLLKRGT

Binder	pKd
TMQMSLKDLL [GLA, P06280]	below the threshold
RALRASESGI [ADGRE5, P48960]	below the threshold

Target: T2, GRIP1_2, Q9Y3R0
T2 sequence (Q9Y3R0 145-248, limits assumed, looked up): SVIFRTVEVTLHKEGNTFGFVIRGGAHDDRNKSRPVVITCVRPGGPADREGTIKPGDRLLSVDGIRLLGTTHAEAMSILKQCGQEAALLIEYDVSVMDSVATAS
Test: holdup assay
Set-up: key: below the threshold = too weak to quantify, mostly under pKd 3.1 to 4
Conditions: plain residues with an end cap or a label only (N-terminal biotin on a linker: ado-ado)

Binder	pKd
TMQMSLKDLL [GLA, P06280]	3.5
RALRASESGI [ADGRE5, P48960]	below the threshold

Target: T3, SNTA1, Q13424
T3 sequence (Q13424 82-180, limits assumed, looked up): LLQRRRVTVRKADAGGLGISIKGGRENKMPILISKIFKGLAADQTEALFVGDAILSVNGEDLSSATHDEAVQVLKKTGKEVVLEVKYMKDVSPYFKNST
Test: holdup assay
Set-up: key: below the threshold = too weak to quantify, mostly under pKd 3.1 to 4
Conditions: plain residues with an end cap or a label only (N-terminal biotin on a linker: ado-ado)

Binder	pKd
TMQMSLKDLL [GLA, P06280]	below the threshold
RALRASESGI [ADGRE5, P48960]	below the threshold

Target: DLG5_1, Q8TDM6
Test: holdup assay
Set-up: key: below the threshold = too weak to quantify, mostly under pKd 3.1 to 4
Conditions: plain residues with an end cap or a label only (N-terminal biotin on a linker: ado-ado)

DLG5_1, Q8TDM6, sequence (Q8TDM6 617-713): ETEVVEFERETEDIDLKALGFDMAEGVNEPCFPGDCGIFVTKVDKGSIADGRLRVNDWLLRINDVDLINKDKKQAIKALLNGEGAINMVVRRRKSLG

Binder	pKd
TMQMSLKDLL [GLA, P06280]	below the threshold
RALRASESGI [ADGRE5, P48960]	below the threshold

Target: Inadl_6, Q8NI35
Test: holdup assay
Set-up: key: below the threshold = too weak to quantify, mostly under pKd 3.1 to 4
Conditions: plain residues with an end cap or a label only (N-terminal biotin on a linker: ado-ado)

Inadl_6, Q8NI35, sequence (Q8NI35 1058-1167): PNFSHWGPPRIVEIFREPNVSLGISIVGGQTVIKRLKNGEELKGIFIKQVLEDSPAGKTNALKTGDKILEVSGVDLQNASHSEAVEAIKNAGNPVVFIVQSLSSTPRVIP

Binder	pKd
TMQMSLKDLL [GLA, P06280]	below the threshold
RALRASESGI [ADGRE5, P48960]	below the threshold

Target: GRIP2_3, Q9C0E4
Test: holdup assay
Set-up: key: below the threshold = too weak to quantify, mostly under pKd 3.1 to 4
Conditions: plain residues with an end cap or a label only (N-terminal biotin on a linker: ado-ado)

GRIP2_3, Q9C0E4, sequence (Q9C0E4 238-339): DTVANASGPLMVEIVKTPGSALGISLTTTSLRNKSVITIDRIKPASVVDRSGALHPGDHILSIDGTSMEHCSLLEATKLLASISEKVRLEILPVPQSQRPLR

Binder	pKd
TMQMSLKDLL [GLA, P06280]	below the threshold
RALRASESGI [ADGRE5, P48960]	below the threshold

Target: NOS1, P29475
Test: holdup assay
Set-up: key: below the threshold = too weak to quantify, mostly under pKd 3.1 to 4
Conditions: plain residues with an end cap or a label only (N-terminal biotin on a linker: ado-ado)

NOS1, P29475, sequence (P29475 9-101): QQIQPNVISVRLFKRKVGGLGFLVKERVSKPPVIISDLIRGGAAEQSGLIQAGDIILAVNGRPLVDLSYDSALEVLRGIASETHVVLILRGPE

Binder	pKd
TMQMSLKDLL [GLA, P06280]	3.73
RALRASESGI [ADGRE5, P48960]	below the threshold

Target: T4, FRMPD1, Q5SYB0
T4 sequence (Q5SYB0 52-145, limits assumed, looked up): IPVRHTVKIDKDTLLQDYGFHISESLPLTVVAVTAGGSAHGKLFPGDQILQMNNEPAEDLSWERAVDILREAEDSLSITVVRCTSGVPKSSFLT
Test: holdup assay
Set-up: key: below the threshold = too weak to quantify, mostly under pKd 3.1 to 4
Conditions: plain residues with an end cap or a label only (N-terminal biotin on a linker: ado-ado)

Binder	pKd
TMQMSLKDLL [GLA, P06280]	below the threshold
RALRASESGI [ADGRE5, P48960]	below the threshold

Target: T5, DVL3, Q92997
T5 sequence (Q92997 244-331, limits assumed, looked up): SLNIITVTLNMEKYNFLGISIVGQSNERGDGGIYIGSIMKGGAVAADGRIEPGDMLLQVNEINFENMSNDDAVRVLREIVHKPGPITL
Test: holdup assay
Set-up: key: below the threshold = too weak to quantify, mostly under pKd 3.1 to 4
Conditions: plain residues with an end cap or a label only (N-terminal biotin on a linker: ado-ado)

Binder	pKd
TMQMSLKDLL [GLA, P06280]	3.6
RALRASESGI [ADGRE5, P48960]	below the threshold

Target: T6, TIAM2, Q8IVF5
T6 sequence (Q8IVF5 885-986, limits assumed, looked up): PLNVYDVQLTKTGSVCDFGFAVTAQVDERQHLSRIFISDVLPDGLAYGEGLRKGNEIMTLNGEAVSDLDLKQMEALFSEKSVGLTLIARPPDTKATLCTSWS
Test: holdup assay
Set-up: key: below the threshold = too weak to quantify, mostly under pKd 3.1 to 4
Conditions: plain residues with an end cap or a label only (N-terminal biotin on a linker: ado-ado)

Binder	pKd
TMQMSLKDLL [GLA, P06280]	below the threshold
RALRASESGI [ADGRE5, P48960]	below the threshold

Target: T7, APBA2_1, Q99767
T7 sequence (Q99767 563-664, limits assumed, looked up): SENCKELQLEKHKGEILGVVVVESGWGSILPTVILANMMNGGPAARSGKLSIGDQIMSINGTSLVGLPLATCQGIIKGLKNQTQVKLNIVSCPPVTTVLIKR
Test: holdup assay
Set-up: key: below the threshold = too weak to quantify, mostly under pKd 3.1 to 4
Conditions: plain residues with an end cap or a label only (N-terminal biotin on a linker: ado-ado)

Binder	pKd
TMQMSLKDLL [GLA, P06280]	below the threshold
RALRASESGI [ADGRE5, P48960]	below the threshold

Target: T8, NHERF3_1, Q5T2W1
T8 sequence (Q5T2W1 4-100, limits assumed, looked up): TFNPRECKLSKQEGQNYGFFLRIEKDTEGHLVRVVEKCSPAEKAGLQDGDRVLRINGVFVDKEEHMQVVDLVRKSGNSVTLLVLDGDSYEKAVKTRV
Test: holdup assay
Set-up: key: below the threshold = too weak to quantify, mostly under pKd 3.1 to 4
Conditions: plain residues with an end cap or a label only (N-terminal biotin on a linker: ado-ado)

Binder	pKd
TMQMSLKDLL [GLA, P06280]	4.34
RALRASESGI [ADGRE5, P48960]	below the threshold

Target: HTRA2, O43464
Test: holdup assay
Set-up: key: below the threshold = too weak to quantify, mostly under pKd 3.1 to 4
Conditions: plain residues with an end cap or a label only (N-terminal biotin on a linker: ado-ado)

HTRA2, O43464, sequence (O43464 355-458): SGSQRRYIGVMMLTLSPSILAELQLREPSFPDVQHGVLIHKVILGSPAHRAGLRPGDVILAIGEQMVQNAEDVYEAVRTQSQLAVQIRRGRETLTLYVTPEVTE

Binder	pKd
TMQMSLKDLL [GLA, P06280]	below the threshold
RALRASESGI [ADGRE5, P48960]	below the threshold

Target: PICK1, Q9NRD5
Test: holdup assay
Set-up: key: below the threshold = too weak to quantify, mostly under pKd 3.1 to 4
Conditions: plain residues with an end cap or a label only (N-terminal biotin on a linker: ado-ado)

PICK1, Q9NRD5, sequence (Q9NRD5 17-115): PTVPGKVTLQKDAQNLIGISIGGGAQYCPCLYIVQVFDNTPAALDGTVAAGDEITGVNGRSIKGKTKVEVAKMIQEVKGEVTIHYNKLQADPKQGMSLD

Binder	pKd
TMQMSLKDLL [GLA, P06280]	below the threshold
RALRASESGI [ADGRE5, P48960]	below the threshold

Target: IL16_1, Q14005
Test: holdup assay
Set-up: key: below the threshold = too weak to quantify, mostly under pKd 3.1 to 4
Conditions: plain residues with an end cap or a label only (N-terminal biotin on a linker: ado-ado)

IL16_1, Q14005, sequence (Q14005 210-306): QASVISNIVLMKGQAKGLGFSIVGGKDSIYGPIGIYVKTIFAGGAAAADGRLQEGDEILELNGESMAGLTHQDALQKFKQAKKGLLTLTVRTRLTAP

Binder	pKd
TMQMSLKDLL [GLA, P06280]	below the threshold
RALRASESGI [ADGRE5, P48960]	below the threshold

Target: ARHGEF12, Q9NZN5-2
Test: holdup assay
Set-up: key: below the threshold = too weak to quantify, mostly under pKd 3.1 to 4
Conditions: plain residues with an end cap or a label only (N-terminal biotin on a linker: ado-ado)

ARHGEF12, Q9NZN5-2, sequence (Q9NZN5 other isoform, or with tags, fused parts or gaps): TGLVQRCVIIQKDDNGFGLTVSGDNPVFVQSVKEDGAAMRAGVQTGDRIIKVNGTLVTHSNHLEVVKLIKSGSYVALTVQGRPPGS

Binder	pKd
TMQMSLKDLL [GLA, P06280]	below the threshold
RALRASESGI [ADGRE5, P48960]	below the threshold

Target: T9, CARD11, Q9BXL7
T9 sequence (Q9BXL7 662-765, limits assumed, looked up): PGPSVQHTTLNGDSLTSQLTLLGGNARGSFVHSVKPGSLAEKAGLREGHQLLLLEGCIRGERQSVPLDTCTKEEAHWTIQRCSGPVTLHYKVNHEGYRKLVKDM
Test: holdup assay
Set-up: key: below the threshold = too weak to quantify, mostly under pKd 3.1 to 4
Conditions: plain residues with an end cap or a label only (N-terminal biotin on a linker: ado-ado)

Binder	pKd
TMQMSLKDLL [GLA, P06280]	below the threshold
RALRASESGI [ADGRE5, P48960]	below the threshold

Target: T10, ARHGEF11, O15085
T10 sequence (O15085 42-136, limits assumed, looked up): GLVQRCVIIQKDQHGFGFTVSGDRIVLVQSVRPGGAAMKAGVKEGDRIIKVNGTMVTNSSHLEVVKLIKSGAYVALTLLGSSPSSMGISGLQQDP
Test: holdup assay
Set-up: key: below the threshold = too weak to quantify, mostly under pKd 3.1 to 4
Conditions: plain residues with an end cap or a label only (N-terminal biotin on a linker: ado-ado)

Binder	pKd
TMQMSLKDLL [GLA, P06280]	3.99
RALRASESGI [ADGRE5, P48960]	below the threshold

Target: GRIP2_6, Q9C0E4
Test: holdup assay
Set-up: key: below the threshold = too weak to quantify, mostly under pKd 3.1 to 4
Conditions: plain residues with an end cap or a label only (N-terminal biotin on a linker: ado-ado)

GRIP2_6, Q9C0E4, sequence (Q9C0E4 648-740): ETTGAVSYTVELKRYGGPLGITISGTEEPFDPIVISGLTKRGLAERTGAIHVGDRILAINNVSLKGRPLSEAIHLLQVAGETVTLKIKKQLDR

Binder	pKd
TMQMSLKDLL [GLA, P06280]	below the threshold
RALRASESGI [ADGRE5, P48960]	below the threshold

Target: NHERF4_2, Q86UT5
Test: holdup assay
Set-up: key: below the threshold = too weak to quantify, mostly under pKd 3.1 to 4
Conditions: plain residues with an end cap or a label only (N-terminal biotin on a linker: ado-ado)

NHERF4_2, Q86UT5, sequence (Q86UT5 220-308): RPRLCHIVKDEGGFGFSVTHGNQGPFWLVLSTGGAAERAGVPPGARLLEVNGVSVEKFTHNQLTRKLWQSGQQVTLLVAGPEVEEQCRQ

Binder	pKd
TMQMSLKDLL [GLA, P06280]	below the threshold
RALRASESGI [ADGRE5, P48960]	below the threshold

Target: CASK, O14936
Test: holdup assay
Set-up: key: below the threshold = too weak to quantify, mostly under pKd 3.1 to 4
Conditions: plain residues with an end cap or a label only (N-terminal biotin on a linker: ado-ado)

CASK, O14936, sequence (O14936 487-570): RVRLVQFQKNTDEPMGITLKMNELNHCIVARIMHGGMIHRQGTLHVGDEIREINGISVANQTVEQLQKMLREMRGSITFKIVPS

Binder	pKd
TMQMSLKDLL [GLA, P06280]	below the threshold
RALRASESGI [ADGRE5, P48960]	below the threshold

Target: T11, TJP3_3, O95049
T11 sequence (O95049 375-456, limits assumed, looked up): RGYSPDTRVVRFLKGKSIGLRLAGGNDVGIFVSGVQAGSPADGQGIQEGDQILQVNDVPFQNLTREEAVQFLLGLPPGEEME
Test: holdup assay
Set-up: key: below the threshold = too weak to quantify, mostly under pKd 3.1 to 4
Conditions: plain residues with an end cap or a label only (N-terminal biotin on a linker: ado-ado)

Binder	pKd
TMQMSLKDLL [GLA, P06280]	below the threshold
RALRASESGI [ADGRE5, P48960]	below the threshold

Target: T12, MPP6, Q9NZW5
T12 sequence (Q9NZW5 125-219, limits assumed, looked up): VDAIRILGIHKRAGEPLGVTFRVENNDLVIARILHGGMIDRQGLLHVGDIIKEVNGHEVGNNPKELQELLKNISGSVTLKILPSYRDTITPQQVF
Test: holdup assay
Set-up: key: below the threshold = too weak to quantify, mostly under pKd 3.1 to 4
Conditions: plain residues with an end cap or a label only (N-terminal biotin on a linker: ado-ado)

Binder	pKd
TMQMSLKDLL [GLA, P06280]	below the threshold
RALRASESGI [ADGRE5, P48960]	3.59

Target: T13, PCLO, Q9Y6V0
T13 sequence (Q9Y6V0 4491-4600, limits assumed, looked up): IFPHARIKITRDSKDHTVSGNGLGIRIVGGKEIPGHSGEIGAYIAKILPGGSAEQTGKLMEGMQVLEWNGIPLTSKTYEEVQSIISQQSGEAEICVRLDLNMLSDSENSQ
Test: holdup assay
Set-up: key: below the threshold = too weak to quantify, mostly under pKd 3.1 to 4
Conditions: plain residues with an end cap or a label only (N-terminal biotin on a linker: ado-ado)

Binder	pKd
TMQMSLKDLL [GLA, P06280]	below the threshold
RALRASESGI [ADGRE5, P48960]	below the threshold
